{
  "source": "patent US7960513B2",
  "about": "“Antibody against a human ADAM protease” (Monash University, priority 2004, dated 2011)",
  "molecular_target": "T1, EphA3 (Homo sapiens, UniProt P29320)",
  "T1 construct": "expressed in transfected cells",
  "T1 sequence (P29320 21-983)": "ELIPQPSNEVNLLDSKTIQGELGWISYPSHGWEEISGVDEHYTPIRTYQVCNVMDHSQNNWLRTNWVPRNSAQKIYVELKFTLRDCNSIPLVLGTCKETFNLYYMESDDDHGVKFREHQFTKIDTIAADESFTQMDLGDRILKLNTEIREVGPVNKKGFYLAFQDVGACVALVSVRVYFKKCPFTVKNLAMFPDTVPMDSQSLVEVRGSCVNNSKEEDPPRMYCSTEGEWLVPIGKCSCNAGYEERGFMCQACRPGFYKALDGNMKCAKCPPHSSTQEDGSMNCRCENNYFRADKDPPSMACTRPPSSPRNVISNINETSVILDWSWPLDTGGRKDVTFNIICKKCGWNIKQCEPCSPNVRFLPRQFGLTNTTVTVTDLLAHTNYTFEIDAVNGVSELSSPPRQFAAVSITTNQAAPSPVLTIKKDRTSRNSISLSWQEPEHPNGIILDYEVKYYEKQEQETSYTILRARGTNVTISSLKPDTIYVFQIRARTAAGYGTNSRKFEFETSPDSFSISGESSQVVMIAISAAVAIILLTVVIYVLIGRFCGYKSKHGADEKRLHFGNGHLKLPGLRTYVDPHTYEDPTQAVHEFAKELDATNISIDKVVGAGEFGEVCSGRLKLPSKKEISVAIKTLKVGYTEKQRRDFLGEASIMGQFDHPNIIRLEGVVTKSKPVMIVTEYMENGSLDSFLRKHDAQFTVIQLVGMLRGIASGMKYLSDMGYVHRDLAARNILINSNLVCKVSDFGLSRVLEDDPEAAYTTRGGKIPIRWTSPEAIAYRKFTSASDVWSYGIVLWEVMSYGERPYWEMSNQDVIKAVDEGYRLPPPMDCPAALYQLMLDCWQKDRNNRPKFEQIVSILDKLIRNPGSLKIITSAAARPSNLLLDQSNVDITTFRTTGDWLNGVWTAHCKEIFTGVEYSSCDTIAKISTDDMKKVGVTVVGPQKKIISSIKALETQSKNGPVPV",
  "assay": "Co-immunoprecipitation from transfected cells, Western blot",
  "format": "cell-based",
  "settings": "EphA3/293 cells, EEE-A substituted construct",
  "method": "FIG. 1. EphA3-ADAM10 association, ephrin-A5 cleavage and ephrin internalisation. • A. Association of ADAM10 with EphA3 in LiBr melanoma cells and parental or stably transfected EphA3/HEK293 cells. The cells were treated with clustered ephrin-Fc (A5 or A2) or were left untreated (−) prior to lysis. Anti-EphA3 immunoprecipitates from lysates were analysed by Western blot for endogenous ADAM10 (“p” and “m” indicate the pro (unprocessed) and mature (processed) forms of ADAM10). Aliquots from immunoprecipitates were blotted for EphA3 levels to indicate loading (lower panel). […] EphA3/HEK293 or ephrin-A5/HEK293 cells were transfected to express HA-tagged ADAM10ΔPM. Western Blots of anti-HA immuno-precipitates were analysed with antibodies against ephrin-A5 and EphA3, parallel control samples with anti-ADAM10 antibodies. Lysates of ephrin-A5/HEK 293 cells were also extracted with Protein-A Sepharose-bound EphA3 Fc and analysed with anti-ephrin-A5 antibodies. • C. […] Pooled cell lysates and supernatants were pre-cleared with excess Protein-A Sepharose, cleaved ephrin-A5 was extracted using EphA3-Fc coupled to Protein-A Sepharose and analysed by anti-ephrin-A5 immuno-blot. Recombinant, monomeric, single-chain ephrin-A5 (Himanen et al., 2004, Nat Neurosci. 7 501-9; ephrin std) was analysed in parallel. • D. Ephrin-A5 cleavage and internalisation are inhibited by dominant-negative ADAM10. […]",
  "data": [
    {"molecule": "ADAM10Δpro: cell-surface ADAM10Δpro incorporating the EEE-A amino acid substitutions (protein, left off: small tags and cut ends, cell-surface ADAM10Δpro incorporating the EEE-A amino acid substitutions) SGQPICGNGMVEQGEECDCGYSDQCKDDCCFDANQPEGKKCKLKPGKQCSPSQGPCCTAQCAFKSKSEKCRDDSDCAKEGICNGFTALCPASDPKPNFTDCNRHTQVCINGQCAGSICAKYDLAACTCASSDGKDDKELCHVCCMKKMAPSTCASTGSLQWSKQFSGRTITLQPGSPCNDFRGYCDVFMRCRLVDADGPLARLKKAIFSPQLYENIAEWIVAHWWAVLLMGIALIMLMAGFIKICSVHTPSSNPKLPPPKPLPGTLKRRRPPQPIQQPPRQRPRESYQMGHMRR", "values": [
      {"measurement": "ephrin-independent constitutive association with EphA3", "result": "remained unchanged"}
    ]}
  ]
}
